# Data as given in US20240101959A1, “USE OF IL-2R-BETA-GAMMA AGONIST PEPTIDES IN CELL MANUFACTURING” (MEDIKINE, INC., priority 2022, published 2024).
# Like-named read-outs stand apart in the source and are kept apart here. Non-standard residues stand in square brackets, D forms with d. No end group written: not given here. Alb = not defined here
# T1: hu-IL-2Rγc subunit (human), P31785
# T1 chain: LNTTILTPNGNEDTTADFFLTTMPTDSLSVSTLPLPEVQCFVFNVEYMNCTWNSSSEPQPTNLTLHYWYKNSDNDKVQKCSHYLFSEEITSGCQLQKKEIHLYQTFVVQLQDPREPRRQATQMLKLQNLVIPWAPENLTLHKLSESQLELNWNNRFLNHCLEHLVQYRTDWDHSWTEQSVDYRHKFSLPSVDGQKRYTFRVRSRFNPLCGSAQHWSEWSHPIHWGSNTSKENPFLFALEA
# T2: hu-IL-2Rγc subunit (human, UniProt P31785 23-262, limits assumed)
# T2 sequence (looked up): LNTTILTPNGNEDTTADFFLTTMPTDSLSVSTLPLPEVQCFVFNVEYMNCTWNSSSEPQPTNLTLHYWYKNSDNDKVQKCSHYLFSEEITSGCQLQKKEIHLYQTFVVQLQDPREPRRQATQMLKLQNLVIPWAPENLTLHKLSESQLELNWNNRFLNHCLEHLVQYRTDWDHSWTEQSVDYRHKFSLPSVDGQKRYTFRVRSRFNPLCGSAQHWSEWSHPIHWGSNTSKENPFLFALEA
# Experiments:
# [1] = molecular target: T1, hu-IL-2Rγc subunit (human), P31785
# [2] = molecular target: T1, hu-IL-2Rγc subunit (human), P31785; assay: phage ELISA competition assay
# hu-IL-2Rγc subunit [3] = molecular target: T2, hu-IL-2Rγc subunit
# hu-IL-2Rγc subunit [4] = molecular target: T2, hu-IL-2Rγc subunit; assay: phage ELISA competition assay
Binder,IC50 [1] [µM],IC50 [2] [µM],IC50 (hu-IL-2Rγc subunit [3]) [µM],IC50 (hu-IL-2Rγc subunit [4]) [µM]
MVNREVVVCEDWYGVELCWQ [SEQ ID NO 643],–,–,< 100,< 10
GPEVVCEEFNRVELCWVEYN (modifications not checked) [SEQ ID NO 696],< 100,< 10,–,–
HSTVICQDWDGVELCWIEND (modifications not checked) [SEQ ID NO 707],< 100,< 10,–,–
RLLNSVVECLDWEGVELCWQ [SEQ ID NO 659],–,–,< 100,< 10
RSDDEVVVCQEWEGVELCWQ [SEQ ID NO 666],–,–,< 100,< 10
YSRELYVQCEDWEGVELCWI [SEQ ID NO 651],–,–,< 100,< 10
AHSRQEVVCEEWYGVELCWI [SEQ ID NO 649],–,–,< 100,< 10
LNRSVWIECEEYEGVELCWL (modifications not checked) [SEQ ID NO 671],< 100,< 10,–,–
INCQTWNGVELCWVDEGLYQ (modifications not checked) [SEQ ID NO 685],< 100,< 10,–,–
PYGVVCQDWAGVELCWVENR (modifications not checked) [SEQ ID NO 683],< 100,< 10,–,–
GGDCSMWEGVELCWGG [SEQ ID NO 737],–,–,< 100,–
ERPRSFIECQEWEGVELCWL (modifications not checked) [SEQ ID NO 663],< 100,< 10,–,–
GNDDSYIVCEEWKGVELCWI (modifications not checked) [SEQ ID NO 669],< 100,< 10,–,–
GGVGIECEEWAGVELCWLGG [SEQ ID NO 739],–,–,< 100,–
KSQVECQDWEGVELCWVVSE (modifications not checked) [SEQ ID NO 676],< 100,< 10,–,–
RLGVECQEWEGVDLCWISAF (modifications not checked) [SEQ ID NO 691],< 100,< 10,–,–
VVCQEWEGVELCWQTGPGAHA (modifications not checked) [SEQ ID NO 699],< 100,< 10,–,–
GLEIACEDWYGVELCWLRRA (modifications not checked) [SEQ ID NO 681],< 100,< 10,–,–

Binder,IC50 [1] [µM],IC50 [2] [µM],IC50 (hu-IL-2Rγc subunit [3]) [µM],IC50 (hu-IL-2Rγc subunit [4]) [µM]
RPQIECQEWQGVELCWTREE (modifications not checked) [SEQ ID NO 678],< 100,< 10,–,–
VVCQEWEGVELCWC [SEQ ID NO 661],–,–,< 100,< 10
GGTWNMSELECQDWNGVEICWHGG [SEQ ID NO 740],–,–,< 100,–
IECDTSYGVYICWQ [SEQ ID NO 637],–,–,< 100,< 10
GYGVLCQEWQGVELCWPVQREAGV (modifications not checked) [SEQ ID NO 682],< 100,< 10,–,–
GGVVCQDWEGVSLCWQGG [SEQ ID NO 746],–,–,< 100,–
TDEVSCQEWEGVELCWIERQ (modifications not checked) [SEQ ID NO 694],< 100,< 10,–,–
GGVVCQDWEGVELCWQGPPA [SEQ ID NO 749],–,–,< 100,–
RPEVVCQEWEGVELCWISPL (modifications not checked) [SEQ ID NO 690],< 100,< 10,–,–
KITVECQDWDGVELCWPTWI (modifications not checked) [SEQ ID NO 677],< 100,< 10,–,–
DRQVVCEEWDGVELCWIEES (modifications not checked) [SEQ ID NO 688],< 100,< 10,–,–
GGRTGVECQDWHGVELCWPVWEGG [SEQ ID NO 742],–,–,< 100,–
KYIVECQEWGGVELCWPEMV (modifications not checked) [SEQ ID NO 697],< 100,< 10,–,–
AVCQDWYGVELCWCMQDILD (modifications not checked) [SEQ ID NO 705],< 100,< 10,–,–
SVEVVCEEWHGVELCWPVFI (modifications not checked) [SEQ ID NO 709],< 100,< 10,–,–
LALRKEVVCQEYYGVELCWI [SEQ ID NO 641],–,–,< 100,< 10
IECEEWAGVELCWL [SEQ ID NO 716],–,–,–,< 10
GGVVCQDWEGVELCWQPPA (not fully specified (bridges); cysteine pairing not given here) [SEQ ID NO 748],–,–,< 100,–

# Further lines, results first:
IC50 [1] [µM],IC50 [2] [µM],IC50 (hu-IL-2Rγc subunit [3]) [µM],IC50 (hu-IL-2Rγc subunit [4]) [µM],Binder
< 100,< 10,–,–,RTEVECEDWEGVELCWL (modifications not checked) [SEQ ID NO 713]
< 100,< 10,–,–,TWNMSELECQDWNGVEICWH (modifications not checked) [SEQ ID NO 668]
< 100,< 10,–,–,TAEVVCQEWDGVELCWIEVL (modifications not checked) [SEQ ID NO 703]
< 100,< 10,–,–,RWAVSCQDWQGIELCWPEWD (modifications not checked) [SEQ ID NO 710]
–,–,< 100,< 10,DVECVDWGGVELCWH [SEQ ID NO 646]
–,–,< 100,< 10,EGSTTTIECEEWAGVELCWL [SEQ ID NO 664]
–,–,< 100,–,GGVVCQDWEGV[Alb]LCWQGG (not fully specified; printed as G G V V C Q D W E G V Alb L C W Q G G; cysteine pairing not given here; reading uncertain) [SEQ ID NO 744]
< 100,< 10,–,–,IVCEEYNGVELCWVETSVKP (modifications not checked) [SEQ ID NO 700]
< 100,< 10,–,–,ANQNTVVECQDWHGVELCWQ (modifications not checked) [SEQ ID NO 665]
< 100,< 10,–,–,RVQVECEDWNGVELCWPVRV (modifications not checked) [SEQ ID NO 687]
–,–,< 100,–,GGVMCERWQGVELCWLGG [SEQ ID NO 738]
< 100,< 10,–,–,VECEEWGGVELCWLADEVMW (modifications not checked) [SEQ ID NO 706]
< 100,< 10,–,–,IMCQEWDGVELCWLERDKAN (modifications not checked) [SEQ ID NO 680]
< 100,< 10,–,–,SPSIVCEEWAGVELCWVDYS (modifications not checked) [SEQ ID NO 704]
–,–,< 100,–,GGRTEVECEDWEGVELCWLGG [SEQ ID NO 741]
–,–,< 100,–,GGVVCQDWEGVGLCWQGG [SEQ ID NO 747]
–,–,< 100,–,"GGVVCQDWEGVXLCWQGG (not fully specified; Abu at residue 12, as printed in the table) [SEQ ID NO 743]"
< 100,< 10,–,–,VSCQEWDGVELCWVDGDLAA (modifications not checked) [SEQ ID NO 679]
< 100,< 10,–,–,EQQVVCQEWNGVELCWIEAG (modifications not checked) [SEQ ID NO 701]
< 100,< 10,–,–,QLGVECQNWRGVELCWVSEI (modifications not checked) [SEQ ID NO 702]
< 100,< 10,–,–,PVEVRCQEWEGVELCWVVGI (modifications not checked) [SEQ ID NO 695]
